These results are taken from article doi:10.1101/2021.03.17.435802 (bioRxiv, 2021).

The test addresses SARS-CoV-2 S1 WT (in-house) (SARS-CoV-2, UniProt P0DTC2). Briefly: SPR. In general terms: Surface plasmon resonance follows binding to a sensor surface in real time, without labels.

B1: REGN10933 (antibody, V domains shown)
VH: QVQLVESGGGLVKPGGSLRLSCAASGFTFSDYYMSWIRQAPGKGLEWVSYITYSGSTIYYADSVKGRFTISRDNAKSSLYLQMNSLRAEDTAVYYCARDRGTTMVPFDYWGQGTLVTVSS
VL: DIQMTQSPSSLSASVGDRVTITCQASQDITNYLNWYQQKPGKAPKLLIYAASNLETGVPSRFSGSGSGTDFTFTISGLQPEDIATYYCQQYDNLPLTFGGGTKVEIK
In the case of B1, the binding result is reported as “binds”.

B2: LY-CoV555 (antibody, V domains shown)
VH: QVQLVQSGAEVKKPGSSVKVSCKASGGTFSNYAISWVRQAPGQGLEWMGRIIPILGIANYAQKFQGRVTITADKSTSTAYMELSSLRSEDTAVYYCARGYYEARHYYYYYAMDVWGQGTAVTVSS
VL: not shown
On to B2, for which the binding result is given as “binds”.
